According to patent US20150024380A1:

B1: peptide Y7E-1 (Staphylococcus aureus) (peptide)
peptide: YSPTHYVPE
B2: peptide V7E (HCV) (peptide)
peptide: VSPTHYVPE
B3: peptide A6M (Streptococcus pneumoniae) (peptide)
peptide: APYIEKGM
B4: peptide A8E (Streptococcus pneumoniae) (peptide)
peptide: AQKRLAPYIE
B5: peptide E8E (HCV) (peptide)
peptide: ECSQHLPYIE

What was measured:
[1] = target: antibodies of human serum sample 284 2408 (HCV-negative serum with interference) (human); test: Vidas anti-HCV immunoassay: index of the serum on coated HCV Core/NS3/NS4 antigens with 5 ug/ml peptide added (competition)
[2] = target: antibodies of human serum sample H48 (HCV-negative serum with interference) (human); test: as above
[3] = target: antibodies of human serum sample 801 1409 (HCV-negative serum with interference) (human); test: as above
[4] = target: antibodies of human serum sample F53 3009 (HCV-negative serum with interference) (human); test: as above
[5] = target: antibodies of human serum sample 175 1811 (HCV-negative serum with interference) (human); test: as above
[6] = target: antibodies of human serum sample M43 (HCV-negative serum with interference) (human); test: as above
[7] = target: antibodies of human serum sample 498 (HCV-negative serum with interference) (human); test: as above
[8] = target: anti-HCV antibodies of positive control sample C1 (commercial serum pool, Trina Bioreactives AG); test: Vidas anti-HCV immunoassay: index of the positive control on coated HCV Core/NS3/NS4 antigens with 5 ug/ml peptide added (competition)
[9] = target: antibodies of human serum sample F25 (HCV-negative serum with interference) (human); test: Vidas anti-HCV immunoassay: index of the serum on coated HCV Core/NS3/NS4 antigens with 1 ug/ml peptide added (competition)
[10] = target: antibodies of human serum sample 295 (HCV-negative serum with interference) (human); test: as above
[11] = target: anti-HCV antibodies of positive control sample C1 (commercial serum pool, Trina Bioreactives AG); test: Vidas anti-HCV immunoassay: index of the positive control on coated HCV Core/NS3/NS4 antigens with 1 ug/ml peptide added (competition)

Row | Binder | Index [1] | Index [2] | Index [3] | Index [4] | Index [5] | Index [6] | Index [7] | Index [8] | Index [9] | Index [10] | Index [11]
1 | B1 | 0.86 index | 0.88 index | 0.71 index | 0.32 index | 0.47 index | 0.17 index | 0.14 index | 3.02 index |  |  | 
2 | B2 | 1.51 index | 1.17 index | 1.04 index | 0.39 index | 0.49 index | 0.42 index | 0.35 index | 3.06 index |  |  | 
3 | B3 |  |  |  |  |  |  |  |  | 2.9 index | 1.04 index | 3.05 index
4 | B4 |  |  |  |  |  |  |  |  | 0.41 index | 0.95 index | 3.02 index
5 | B5 |  |  |  |  |  |  |  |  | 0.85 index | 0.9 index | 2.92 index
